From patent US8772229B2, “Methods for synthesis and uses of inhibitors of ghrelin O-acyltransferase as potential therapeutic agents for obesity and diabetes” (The Johns Hopkins University, priority 2008, dated 2014)

Legend:
PCAF HAT = target: T1, PCAF HAT (Homo sapiens, UniProt Q92831); experiment: Acetyltransferase specificity assay (α-KGDH coupled), PCAF; assay type: biochemical
T1 construct: Recombinant acetyltransferase domains and histone tail peptides were prepared as described previously (38-40); made in house
Procedure: (§1) The specificity of GO-CoA-Tat with the acetyltransferases p300, PCAF, and AANAT was measured using an α-ketoglutarate dehydrogenase (α-KGDH) coupled spectrophotometric assay (37). Recombinant acetyltransferase domains and histone tail peptides were prepared as described previously (38-40). The production of CoASH by the acetyltransferase is coupled to the formation of NADH, which is monitored at 340 nm (ε340=6230 M^−1 cm^−1) in a Beckman DU-640 spectrophotometer. All reactions contain 200 μM thiamine pyrophosphate, 5 mM MgCl2, 1 mM DTT, 50 μg/mL BSA, 200 μM NAD, 2.4 mM α-ketoglutarate, 10 μM GO-CoA-Tat, and 50 μM acetyl-CoA. Reactions with p300 were performed in 100 mM HEPES, pH 7.9, and contain 0.1 units α-KGDH and 200 μM H4-15, a 15-mer peptide substrate based on the sequence of the histone H4 tail. p300 reactions are incubated at 30° C. prior to initiation with addition of 100 nM p300 and take place at 30° C. Reactions with PCAF are performed in 100 mM HEPES, pH 7.9, and contain 0.037 units α-KGDH and 100 μM H3-20, a 20-mer peptide substrate based on the sequence of the histone H3 tail. PCAF reactions are incubated at 30° C. for 10 minutes prior to initiation with addition of 100 nM PCAF and take place at 30° C. Reactions with AANAT are performed in 100 mM NH4OAc, pH 6.8, and contain 0.1 units α-KGDH and 200 μM tryptamine. […]

[1] = target: T2, serotonin N-acetyltransferase (Ovis aries, UniProt Q29495); experiment: Acetyltransferase specificity assay (α-KGDH coupled), AANAT; assay type: biochemical
T2 construct: Recombinant acetyltransferase domains and histone tail peptides were prepared as described previously (38-40); made in house
Procedure: as §1

p300 HAT = target: T3, p300 HAT (Homo sapiens, UniProt Q09472); experiment: Acetyltransferase specificity assay (α-KGDH coupled), p300; assay type: biochemical
T3 construct: Recombinant acetyltransferase domains and histone tail peptides were prepared as described previously (38-40); made in house
T3 sequence (Q09472 1287-1663 limits assumed): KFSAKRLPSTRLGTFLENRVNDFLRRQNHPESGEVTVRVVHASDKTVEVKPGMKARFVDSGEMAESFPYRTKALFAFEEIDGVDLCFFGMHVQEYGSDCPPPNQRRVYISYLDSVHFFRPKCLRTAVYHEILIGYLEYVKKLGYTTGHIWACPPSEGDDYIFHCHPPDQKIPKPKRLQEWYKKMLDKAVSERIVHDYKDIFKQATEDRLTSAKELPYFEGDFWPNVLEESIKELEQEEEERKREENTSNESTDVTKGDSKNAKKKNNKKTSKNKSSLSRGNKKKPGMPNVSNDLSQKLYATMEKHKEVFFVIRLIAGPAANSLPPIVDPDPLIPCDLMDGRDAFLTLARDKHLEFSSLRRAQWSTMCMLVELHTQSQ
Procedure: as §1

HEPG2 cell = experiment: Cell viability assay (LIVE/DEAD), HepG2 cells; assay type: cell-based, human; details: 10 μM, 24 hr incubation
Procedure: (§2) The viability of the HEL cell line and the human immortalized hepatocyte cell line HepG2 (ATCC, Manassas, Va.) treated with the varying concentrations of GO-CoA-Tat was determined using a LIVE/DEAD viability assay kit (Molecular Probes). […] were incubated with two probes, 2 μM calcein-AM (green color) for 30 min and 4 μM ethidium homodimer-1 (EtdD-1, bright red color) for 10 min, for intracellular esterase activity and plasma membrane integrity, respectively. Calcein-AM was excited using the 500 nm laser line, and the emitted fluorescence was detected through a 535 nm long-pass filter. EtdD-1 was excited using the 514 nm laser line, and the emitted fluorescence was detected through a 550 nm long-pass filter. Red fluorescent (EtdD-1) cells were counted as dead, and green fluorescent (Calcein-AM) were counted as viable. In cases of dual partial red and green staining, cells were counted as dead.

HEL cell = experiment: Cell viability assay (LIVE/DEAD), HEL cells; assay type: cell-based, human; details: 10 μM, 24 hr incubation
Procedure: as §2

[2] = Blood chemistries and blood cell counts after 12 days of treatment; assay type: in vivo, mice; details: 12 day treatment
Description: To investigate the potential for GO-CoA-Tat induced generalized toxicity or organ damage as a source of weight loss, we assessed the blood chemistries and blood cell counts in the 12 day GO-CoA-Tat treated animals.

T2 sequence (Q29495 35-196 limits assumed): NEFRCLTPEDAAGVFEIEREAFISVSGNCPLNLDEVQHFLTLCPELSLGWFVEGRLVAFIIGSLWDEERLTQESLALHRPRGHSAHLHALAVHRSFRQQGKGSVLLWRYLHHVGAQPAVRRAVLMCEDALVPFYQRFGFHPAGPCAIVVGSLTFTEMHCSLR
T1 sequence (Q92831 503-651 limits assumed): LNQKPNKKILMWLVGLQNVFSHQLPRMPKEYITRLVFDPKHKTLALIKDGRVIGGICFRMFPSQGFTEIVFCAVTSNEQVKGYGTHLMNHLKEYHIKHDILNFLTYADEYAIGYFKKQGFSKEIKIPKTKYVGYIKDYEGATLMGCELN

Q: For `CCCCCCC(SCCNC(=O)CCNC(=O)[C@H](O)C(C)(C)COP(=O)(O)OP(=O)(O)OC[C@H]1O[C@@H](n2cnc3c(N)ncnc32)[C@H](O)[C@@H]1OP(=O)(O)O)C(=O)NC[C@H](NC(=O)[C@H](CO)NC(=O)CN)C(=O)N[C@@H](Cc1ccccc1)C(=O)N[C@@H](CC(C)C)C(=O)N[C@@H](CO)C(=O)N1CCC[C@H]1C(=O)N[C@@H](CCC(=O)O)C(=O)N[C@@H](Cc1c[nH]cn1)C(=O)N[C@@H](CCC(N)=O)C(=O)NCCCCCC(=O)N[C@@H](Cc1ccc(O)cc1)C(=O)NCC(=O)N[C@@H](CCCNC(=N)N)C(=O)N[C@@H](CCCCN)C(=O)N[C@@H](CCCCN)C(=O)N[C@@H](CCCNC(=N)N)C(=O)N[C@@H](CCCNC(=N)N)C(=O)N[C@@H](CCC(N)=O)C(=O)N[C@@H](CCCNC(=N)N)C(=O)N[C@@H](CCCNC(=N)N)C(=O)N[C@@H](CCCNC(=N)N)C(=O)O` (some centres unmarked) [GO-CoA-Tat], which inhibition at 10 µM (PCAF HAT) is on record?
A: The inhibition at 10 µM was < 15%.

Q: And the inhibition at 10 µM [1]?
A: The inhibition at 10 µM was < 15%.

Q: And the inhibition at 10 µM (p300 HAT)?
A: Its inhibition at 10 µM is < 15%.

Q: And the HEPG2 cell viability (HEPG2 cell)?
A: The HEPG2 cell viability was “non-toxic”.

Q: What about the HEL cell viability (HEL cell) of the same compound?
A: The HEL cell viability was “non-toxic”.

Q: What about the “organ toxicity from blood chemistries and blood cell counts” value ([2]; 29 mg/kg IP daily) of the same compound?
A: The value was “no evidence of liver, renal, pancreas, or bone marrow toxicities”.

Q: What about the HDL ([2]; vs. D4-Tat) of the same compound?
A: Its HDL is “small but significant increases”.

Q: And the triglycerides ([2]; vs. D4-Tat)?
A: The triglycerides was “small but significant increases”.
